Results published in the supplement of paper PMC10065799, “High-throughput profiling of sequence recognition by tyrosine kinases and SH2 domains using bacterial peptide display” (eLife, 2023).

Tests used:
AncSZ = assay: phosphorylation enrichment, bacterial display (enrichment ratio); higher = better substrate or ligand; peptides without Tyr show the background
EPHB1 = EPHB1 (UniProt P54762); assay: as above
EPHB2 = EPHB2 (UniProt P29323); assay: as above
FGFR1 = FGFR1 (UniProt P11362); assay: as above
FGFR3 = FGFR3 (UniProt P22607); assay: as above
Fer (mouse) = assay: as above
Fes = Fes (UniProt P07332); assay: as above
Fyn = Fyn (UniProt P06241); assay: as above
Hck = Hck (UniProt P08631); assay: as above
Jak2 = Jak2 (UniProt O60674); assay: as above
MERTK = MERTK (UniProt Q12866); assay: as above
c-Abl (mouse) = assay: as above
c-Src = assay: as above
Grb2 SH2 = Grb2 SH2 (UniProt P62993); assay: SH2 binding enrichment of the phosphorylated peptide, bacterial display (enrichment ratio); higher = better substrate or ligand; peptides without Tyr show the background
SHP2-C SH2 = assay: as above
c-Src SH2 = assay: as above
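For SH2 binding enrichment of the phosphorylated peptide, bacterial display in this document: peptide library displayed on the E. coli surface as eCPX fusions, selected cells deep-sequenced, score is each peptide's frequency after selection divided by its frequency in the input.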
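For phosphorylation enrichment, bacterial display in this document: 11-residue human phosphosite peptides and single-mutation variants displayed on the E. coli surface, counted by deep sequencing, each peptide's frequency after selection divided by its frequency in the unselected input library; frequency after pTyr selection over input frequency; kinase dosed for 20-30% of maximal phosphorylation in three min.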

Sequence of Fes (P07332 whole entry, looked up): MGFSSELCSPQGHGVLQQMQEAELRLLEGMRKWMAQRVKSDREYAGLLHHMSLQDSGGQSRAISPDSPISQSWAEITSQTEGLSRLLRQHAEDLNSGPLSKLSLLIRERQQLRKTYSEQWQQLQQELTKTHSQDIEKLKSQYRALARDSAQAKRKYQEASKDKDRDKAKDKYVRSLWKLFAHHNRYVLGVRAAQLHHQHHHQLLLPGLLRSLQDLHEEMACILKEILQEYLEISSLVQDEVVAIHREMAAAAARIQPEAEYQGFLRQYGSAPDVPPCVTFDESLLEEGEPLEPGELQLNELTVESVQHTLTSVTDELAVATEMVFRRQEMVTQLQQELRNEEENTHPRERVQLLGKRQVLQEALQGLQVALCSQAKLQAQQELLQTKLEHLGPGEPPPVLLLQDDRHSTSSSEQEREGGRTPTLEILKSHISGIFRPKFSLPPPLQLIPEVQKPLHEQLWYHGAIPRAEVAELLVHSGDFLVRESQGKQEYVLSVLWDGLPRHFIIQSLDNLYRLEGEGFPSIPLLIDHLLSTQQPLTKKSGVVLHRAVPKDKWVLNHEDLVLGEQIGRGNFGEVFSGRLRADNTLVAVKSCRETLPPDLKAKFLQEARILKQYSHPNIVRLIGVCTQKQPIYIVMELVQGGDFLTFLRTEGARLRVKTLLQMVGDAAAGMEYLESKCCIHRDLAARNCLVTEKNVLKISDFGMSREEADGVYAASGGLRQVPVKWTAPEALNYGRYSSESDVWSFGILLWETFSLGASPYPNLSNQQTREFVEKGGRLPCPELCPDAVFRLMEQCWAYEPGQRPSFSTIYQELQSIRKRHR
Sequence of FGFR1 (P11362 whole entry, looked up): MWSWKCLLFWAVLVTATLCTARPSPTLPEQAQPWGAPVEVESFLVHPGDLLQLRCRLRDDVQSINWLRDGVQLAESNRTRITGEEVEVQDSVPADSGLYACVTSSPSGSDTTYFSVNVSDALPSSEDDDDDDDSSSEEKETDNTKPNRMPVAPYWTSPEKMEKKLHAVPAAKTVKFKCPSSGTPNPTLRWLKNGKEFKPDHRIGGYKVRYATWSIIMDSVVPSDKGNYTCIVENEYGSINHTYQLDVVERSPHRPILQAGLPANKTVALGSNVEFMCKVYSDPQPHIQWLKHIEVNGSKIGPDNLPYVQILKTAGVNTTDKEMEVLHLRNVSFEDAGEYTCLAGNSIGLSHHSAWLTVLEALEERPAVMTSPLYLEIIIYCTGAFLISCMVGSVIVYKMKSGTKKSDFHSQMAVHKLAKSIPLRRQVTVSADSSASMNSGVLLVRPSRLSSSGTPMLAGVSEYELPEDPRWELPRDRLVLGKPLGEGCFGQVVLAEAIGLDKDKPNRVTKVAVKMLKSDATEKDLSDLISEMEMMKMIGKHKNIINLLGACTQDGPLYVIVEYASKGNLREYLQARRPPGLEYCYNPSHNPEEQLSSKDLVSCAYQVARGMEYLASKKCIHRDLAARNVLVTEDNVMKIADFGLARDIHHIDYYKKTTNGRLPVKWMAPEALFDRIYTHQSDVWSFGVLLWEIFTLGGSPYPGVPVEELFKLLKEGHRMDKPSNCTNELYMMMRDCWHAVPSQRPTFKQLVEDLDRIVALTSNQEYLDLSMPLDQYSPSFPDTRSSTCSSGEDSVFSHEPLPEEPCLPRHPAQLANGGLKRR
Sequence of EPHB1 (P54762 whole entry, looked up): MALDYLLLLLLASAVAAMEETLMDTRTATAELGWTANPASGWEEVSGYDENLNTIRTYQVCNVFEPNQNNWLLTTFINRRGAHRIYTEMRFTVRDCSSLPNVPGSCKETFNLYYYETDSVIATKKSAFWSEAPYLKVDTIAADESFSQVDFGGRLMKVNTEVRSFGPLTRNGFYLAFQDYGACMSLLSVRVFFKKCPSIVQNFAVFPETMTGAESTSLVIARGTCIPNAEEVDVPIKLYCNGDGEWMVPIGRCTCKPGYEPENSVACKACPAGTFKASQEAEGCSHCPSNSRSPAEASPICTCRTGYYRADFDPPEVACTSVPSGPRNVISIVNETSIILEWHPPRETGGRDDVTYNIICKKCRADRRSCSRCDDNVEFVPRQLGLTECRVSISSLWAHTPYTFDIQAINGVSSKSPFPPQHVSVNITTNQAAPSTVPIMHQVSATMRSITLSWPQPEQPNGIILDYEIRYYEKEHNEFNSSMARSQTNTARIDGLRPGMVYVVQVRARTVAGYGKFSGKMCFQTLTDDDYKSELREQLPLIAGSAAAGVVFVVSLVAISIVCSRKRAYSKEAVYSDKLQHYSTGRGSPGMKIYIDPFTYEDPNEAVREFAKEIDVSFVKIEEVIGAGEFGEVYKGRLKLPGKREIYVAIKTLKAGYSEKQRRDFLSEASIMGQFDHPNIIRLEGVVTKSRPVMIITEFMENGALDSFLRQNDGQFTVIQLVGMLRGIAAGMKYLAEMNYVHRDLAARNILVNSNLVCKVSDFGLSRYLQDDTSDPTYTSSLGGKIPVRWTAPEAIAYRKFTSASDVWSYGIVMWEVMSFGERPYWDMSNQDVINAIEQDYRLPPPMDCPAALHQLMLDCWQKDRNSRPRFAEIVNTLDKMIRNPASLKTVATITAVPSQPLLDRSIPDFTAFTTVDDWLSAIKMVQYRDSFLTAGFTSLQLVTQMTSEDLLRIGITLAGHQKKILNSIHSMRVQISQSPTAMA
Sequence of Jak2 (O60674 whole entry, looked up): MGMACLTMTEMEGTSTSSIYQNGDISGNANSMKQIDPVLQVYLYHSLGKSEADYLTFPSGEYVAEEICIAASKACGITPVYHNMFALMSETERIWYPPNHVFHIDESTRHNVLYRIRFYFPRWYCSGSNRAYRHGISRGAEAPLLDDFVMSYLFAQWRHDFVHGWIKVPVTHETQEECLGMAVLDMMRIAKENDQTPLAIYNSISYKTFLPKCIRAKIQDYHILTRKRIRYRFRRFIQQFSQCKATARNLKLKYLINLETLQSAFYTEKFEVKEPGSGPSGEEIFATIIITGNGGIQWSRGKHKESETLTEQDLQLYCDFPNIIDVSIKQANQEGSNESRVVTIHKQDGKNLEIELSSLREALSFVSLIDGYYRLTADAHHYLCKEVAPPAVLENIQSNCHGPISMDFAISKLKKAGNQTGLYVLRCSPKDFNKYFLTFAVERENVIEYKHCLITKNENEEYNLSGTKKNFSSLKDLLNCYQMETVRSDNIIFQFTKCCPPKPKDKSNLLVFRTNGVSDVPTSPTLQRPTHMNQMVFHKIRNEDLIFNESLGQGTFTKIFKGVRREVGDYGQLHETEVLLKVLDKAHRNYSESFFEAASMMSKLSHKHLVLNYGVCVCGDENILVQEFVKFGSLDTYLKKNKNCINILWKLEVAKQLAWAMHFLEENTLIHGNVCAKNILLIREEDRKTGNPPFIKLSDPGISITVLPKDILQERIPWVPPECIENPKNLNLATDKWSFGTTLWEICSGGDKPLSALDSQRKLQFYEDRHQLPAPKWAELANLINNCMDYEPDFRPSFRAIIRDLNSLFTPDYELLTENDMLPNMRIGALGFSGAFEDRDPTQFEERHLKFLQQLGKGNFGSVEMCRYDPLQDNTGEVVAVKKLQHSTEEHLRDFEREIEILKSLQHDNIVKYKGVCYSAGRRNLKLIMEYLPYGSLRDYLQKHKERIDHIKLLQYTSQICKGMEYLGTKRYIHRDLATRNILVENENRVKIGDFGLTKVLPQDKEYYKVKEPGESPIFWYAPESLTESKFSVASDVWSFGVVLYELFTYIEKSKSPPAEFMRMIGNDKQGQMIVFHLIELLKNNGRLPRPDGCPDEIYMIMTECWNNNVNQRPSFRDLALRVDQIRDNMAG
Sequence of MERTK (Q12866 whole entry, looked up): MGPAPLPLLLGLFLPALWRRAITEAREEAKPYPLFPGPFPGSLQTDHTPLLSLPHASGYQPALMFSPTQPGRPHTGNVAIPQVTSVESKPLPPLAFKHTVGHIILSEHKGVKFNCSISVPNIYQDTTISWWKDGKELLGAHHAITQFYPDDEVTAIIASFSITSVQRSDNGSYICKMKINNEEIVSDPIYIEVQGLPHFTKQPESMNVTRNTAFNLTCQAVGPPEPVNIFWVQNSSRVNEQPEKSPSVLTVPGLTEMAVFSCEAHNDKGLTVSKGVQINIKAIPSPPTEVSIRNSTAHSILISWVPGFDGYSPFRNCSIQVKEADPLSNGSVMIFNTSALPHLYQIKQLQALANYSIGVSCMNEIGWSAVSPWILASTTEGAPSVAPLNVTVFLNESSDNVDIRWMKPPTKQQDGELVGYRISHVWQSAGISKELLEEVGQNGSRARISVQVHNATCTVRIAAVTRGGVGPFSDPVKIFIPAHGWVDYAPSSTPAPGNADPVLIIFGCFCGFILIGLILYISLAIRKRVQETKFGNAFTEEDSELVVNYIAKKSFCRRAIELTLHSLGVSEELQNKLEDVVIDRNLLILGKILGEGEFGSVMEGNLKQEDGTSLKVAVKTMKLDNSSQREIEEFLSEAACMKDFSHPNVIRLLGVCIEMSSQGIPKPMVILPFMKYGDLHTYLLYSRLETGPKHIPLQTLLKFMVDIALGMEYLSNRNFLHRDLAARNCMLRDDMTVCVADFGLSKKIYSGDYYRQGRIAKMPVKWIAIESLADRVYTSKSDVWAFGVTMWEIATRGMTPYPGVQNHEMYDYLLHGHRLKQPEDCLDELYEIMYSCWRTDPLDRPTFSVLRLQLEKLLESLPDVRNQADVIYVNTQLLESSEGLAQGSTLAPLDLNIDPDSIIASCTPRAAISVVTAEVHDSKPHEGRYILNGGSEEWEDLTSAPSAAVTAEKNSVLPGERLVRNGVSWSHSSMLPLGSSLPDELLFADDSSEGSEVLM

Row | Sequence | SH2 binding enrichment (Grb2 SH2) | SH2 binding enrichment (SHP2-C SH2) | SH2 binding enrichment (c-Src SH2) | phosphorylation enrichment (AncSZ) | phosphorylation enrichment (EPHB1) | phosphorylation enrichment (EPHB2) | phosphorylation enrichment (FGFR1) | phosphorylation enrichment (FGFR3) | phosphorylation enrichment (Fer (mouse)) | phosphorylation enrichment (Fes) | phosphorylation enrichment (Fyn) | phosphorylation enrichment (Hck) | phosphorylation enrichment (Jak2) | phosphorylation enrichment (MERTK) | phosphorylation enrichment (c-Abl (mouse)) | phosphorylation enrichment (c-Src)
1 | ADEEYYEIIAA [FEStide_no-pY_2014] | 0.956 | 0.647 | 1.01 | 3.85 | 1.02 | 0.795 | 9.19 | 7.62 | 5.58 | 1.48 | 2.17 | 2.32 | 1.31 | 1.53 | 1.14 | 2.47
2 | IETGRYEILTE | 0.883 | 0.697 | 21.6 | 1.07 | 0.595 | 0.762 | 0.491 | 0.632 | 0.464 | 1 | 0.488 | 0.487 | 0.951 | 0.533 | 0.854 | 0.479
3 | QFNIQYSSSAA [ERBB2IP_Y981_YF] | 0.705 | 0.623 | 0.557 | 1.11 | 0.51 | 0.542 | 0.832 | 0.661 | 0.458 | 1.31 | 0.485 | 0.673 | 0.935 | 0.962 | 1.01 | 0.633
4 | QRPGLYDRPGA [HNRNPH2_Y210_P209L] | 0.804 | 0.513 | 1.59 | 0.737 | 0.933 | 0.512 | 0.651 | 0.773 | 0.802 | 0.943 | 0.741 | 1.22 | 0.829 | 0.852 | 1.2 | 0.806
5 | KILTHYKQPHT [KMT2D_Y5349_R5351Q] | 1.05 | 0.998 | 0.907 | 0.763 | 0.364 | 0.403 | 0.437 | 0.412 | 0.384 | 0.565 | 0.478 | 0.46 | 0.726 | 0.506 | 1.18 | 0.416
6 | AQADIYKADFQ [IKBKG_Y308] | 0.836 | 0.647 | 0.421 | 0.856 | 0.465 | 0.535 | 0.44 | 0.722 | 0.354 | 0.848 | 0.734 | 0.78 | 0.672 | 0.399 | 0.675 | 0.925
7 | RSSGSYGGGGQ [HNRNPA1_Y341_P340S] | 0.777 | 0.68 | 0.457 | 0.492 | 1.5 | 0.606 | 0.536 | 0.485 | 0.438 | 0.532 | 0.539 | 0.423 | 0.354 | 0.415 | 0.527 | 0.366
8 | LEISPYMLSGP [LRRK2_Y1718_R1723P] | 0.904 | 0.465 | 0.517 | 1.53 | 0.753 | 0.633 | 0.921 | 0.983 | 2.63 | 1.16 | 3.67 | 1.1 | 1.35 | 1.97 | 0.866 | 3.58
9 | PSSNLYFRWLT [CNGA3_Y168_YF] | 1.41 | 1.15 | 0.876 | 1.7 | 0.688 | 0.959 | 1.52 | 1.33 | 1.02 | 1.2 | 0.886 | 1.38 | 3.54 | 4.73 | 0.822 | 1.11
10 | SLKAFYGEDAK [ALDH3A1_Y272_E270A] | 0.891 | 0.663 | 0.68 | 0.603 | 0.395 | 0.369 | 0.433 | 0.538 | 0.417 | 0.724 | 0.416 | 0.456 | 0.58 | 0.332 | 0.562 | 0.489
11 | FFIMMYTGSNV [DNAJC13_Y1131] | 0.9 | 0.732 | 0.508 | 1.3 | 0.681 | 0.664 | 0.619 | 0.782 | 0.589 | 1.29 | 0.433 | 0.505 | 1.06 | 0.477 | 0.779 | 0.4
12 | PHQTIYSALMI [FGF23_Y70] | 0.68 | 0.598 | 0.495 | 1.26 | 5.93 | 4.45 | 1.88 | 1.61 | 20.3 | 3.94 | 12.7 | 12.8 | 1.7 | 13.1 | 20.6 | 10.4
13 | AGITAYQSCLQ [ADGRA2_Y377] | 0.827 | 0.497 | 0.395 | 1.12 | 0.685 | 0.717 | 0.562 | 0.951 | 0.63 | 1.3 | 0.633 | 0.568 | 1.03 | 0.59 | 0.918 | 0.518
14 | PVQAASQKVVA [HBB_Y131_Y131S] | 0.623 | 0.712 | 0.432 | 0.482 | 0.592 | 0.414 | 0.477 | 1.55 | 0.414 | 1.36 | 0.445 | 0.426 | 0.398 | 0.396 | 0.571 | 0.469
15 | RGYRQDAYDGK [HLA-A_Y140] | 1.3 | 0.458 | 0.517 | 0.773 | 0.519 | 0.546 | 0.641 | 0.509 | 0.764 | 0.677 | 0.671 | 0.591 | 0.859 | 0.436 | 0.859 | 0.526
16 | VHNLDYYKETT [FGFR3_Y647_K650E] | 0.702 | 0.585 | 0.564 | 0.903 | 0.452 | 0.497 | 0.789 | 0.769 | 0.439 | 0.824 | 0.421 | 0.456 | 0.714 | 0.39 | 0.577 | 0.367
17 | HAKKNYGNSSV [HDX_Y197] | 1.04 | 0.69 | 0.414 | 0.398 | 0.316 | 0.162 | 0.406 | 0.281 | 0.407 | 0.409 | 0.262 | 0.387 | 0.396 | 0.355 | 0.508 | 0.355
18 | RFLRGYEQDAY [HLA-A_Y137_R138E] | 1.03 | 0.87 | 0.981 | 0.71 | 0.358 | 0.448 | 0.6 | 0.57 | 0.289 | 0.969 | 0.525 | 0.42 | 0.807 | 0.304 | 0.478 | 0.407
19 | GAALAYGLDKS [HSPA9_Y230_A225G] | 0.786 | 0.696 | 0.488 | 0.529 | 0.337 | 0.515 | 0.389 | 0.474 | 0.411 | 0.637 | 0.483 | 0.402 | 0.493 | 0.306 | 0.487 | 0.415
20 | QGFDTYFGYLL [ARSB_Y165_R160Q] | 0.596 | 0.561 | 0.327 | 2.72 | 5.42 | 10.3 | 5.78 | 5.48 | 6.45 | 1.64 | 9.48 | 8.44 | 5.92 | 4.3 | 0.92 | 6.32
21 | CEAMEYLESKQ [BTK_Y511] | 0.676 | 0.553 | 0.402 | 1.94 | 0.882 | 0.811 | 0.655 | 1.01 | 0.788 | 1.95 | 0.557 | 0.751 | 1.89 | 0.688 | 1.36 | 0.839

Continued, in another order:

Row | SH2 binding enrichment (Grb2 SH2) | SH2 binding enrichment (SHP2-C SH2) | SH2 binding enrichment (c-Src SH2) | Sequence | phosphorylation enrichment (AncSZ) | phosphorylation enrichment (EPHB1) | phosphorylation enrichment (EPHB2) | phosphorylation enrichment (FGFR1) | phosphorylation enrichment (FGFR3) | phosphorylation enrichment (Fer (mouse)) | phosphorylation enrichment (Fes) | phosphorylation enrichment (Fyn) | phosphorylation enrichment (Hck) | phosphorylation enrichment (Jak2) | phosphorylation enrichment (MERTK) | phosphorylation enrichment (c-Abl (mouse)) | phosphorylation enrichment (c-Src)
22 | 1.1 | 0.706 | 0.657 | MPPHICAITDT [MYH9_Y151_Y151C] | 0.809 | 0.628 | 0.53 | 0.578 | 0.685 | 0.631 | 1.1 | 0.51 | 0.538 | 0.981 | 0.473 | 1.34 | 0.529
23 | 1.04 | 1 | 0.541 | EEQKRYFNAMK [SCN5A_Y1494_K1493R_YF] | 0.591 | 0.353 | 0.445 | 0.49 | 0.46 | 0.424 | 0.645 | 0.348 | 0.451 | 0.673 | 0.41 | 0.446 | 0.435
24 | 0.863 | 0.678 | 0.453 | KGFRGYSFDDI [TMEM230_Y110_YF] | 0.824 | 0.495 | 0.541 | 0.41 | 0.501 | 0.409 | 0.798 | 0.402 | 0.412 | 0.835 | 0.375 | 0.551 | 0.452
25 | 0.886 | 0.638 | 0.483 | QHVPDYRQNVY [PCDHGA1_Y890] | 0.742 | 0.544 | 0.563 | 0.497 | 0.626 | 0.517 | 0.829 | 0.673 | 0.665 | 0.76 | 0.478 | 0.66 | 0.723
26 | 1.3 | 1.28 | 1.12 | KVALPYKPFFF [POLE_Y100_YF] | 0.743 | 0.42 | 0.715 | 0.375 | 0.537 | 0.455 | 0.855 | 0.44 | 0.557 | 0.674 | 0.41 | 0.656 | 0.547
27 | 0.812 | 0.926 | 0.469 | FQEPVYSVAFS [TBL1X_Y509_H504Y_YF] | 4.02 | 18.1 | 24.6 | 3.68 | 3.49 | 16.6 | 3.7 | 11.8 | 10.2 | 0.925 | 11.7 | 27.4 | 7.54
28 | 0.795 | 0.735 | 0.516 | FRDALYKSMVD [PHEX_Y250_F252S_YF] | 0.792 | 0.608 | 0.614 | 0.497 | 0.642 | 0.488 | 0.97 | 0.419 | 0.476 | 0.897 | 0.484 | 0.643 | 0.365
29 | 1.15 | 0.719 | 0.932 | MSRDVYSTDCY [NTRK2_Y702_Y706C] | 0.993 | 0.718 | 0.701 | 0.726 | 0.766 | 0.631 | 1.14 | 2.1 | 0.972 | 1.06 | 1.51 | 0.993 | 2.32
30 | 0.803 | 0.79 | 0.509 | GGQDVYGDFGG [Probound] | 0.748 | 0.718 | 0.883 | 0.527 | 0.573 | 0.498 | 0.837 | 8.36 | 5.41 | 0.905 | 0.562 | 0.939 | 5.08
31 | 0.923 | 0.767 | 0.685 | DNAFQYMLTDR [MYH7_Y164_YF] | 0.955 | 0.44 | 0.496 | 0.461 | 0.584 | 0.472 | 1.02 | 0.47 | 0.494 | 0.738 | 0.374 | 0.47 | 0.543
32 | 0.787 | 0.739 | 0.692 | NPETCYQRLKK [TK2_Y190] | 1.03 | 0.527 | 0.603 | 0.481 | 0.545 | 0.432 | 1.03 | 0.412 | 0.736 | 0.966 | 0.469 | 0.839 | 0.483
33 | 1.05 | 0.779 | 0.774 | QRRFLYFFSFL [PTEN_Y176_V175L_YF] | 1.61 | 0.761 | 0.817 | 0.978 | 1.16 | 0.862 | 1.85 | 0.795 | 0.68 | 1.5 | 0.886 | 1.09 | 0.567
